Experiment: soluble on expression in E. coli; label from the status in PepcDB or PDB records

| Sequence | soluble on expression in E. coli |
| --- | --- |
| LYPEEILDTHWELWKKTHRKQYNNKVDEISRRLIWEKNLKYISIHNLEASLGVHTYELAMNHLGDMTSEEVVQKMTGLKVPLSHSRSNDTLYIPEWEGRAPDSVDYRKKGYVTPVKNQGQCGSCWAFSSVGALEGQLKKKTGKLLNLSPQNLVDCVSENDGCGGGYMTNAFQYVQKNRGIDSEDAYPYVGQEESCMYNPTGKAAKCRGYREIPEGNEKALKRAVARVGPVSVAIDASLTSFQFYSKGVYYDESCNSDNLNHAVLAVGYGIQKGNKHWIIKNSWGENWGNKGYILMARNKNNACGIANLASFPKM | soluble |
| MGSDKIHHHHHHMPLPENSVVEKNILNPEAVAEALERAMNLANPQTTHAAIAVPTSTVIHKTIEMDADMSDDEREVQIRVDAEQYIPFPLDEVSLDFEVLPDRLANPNRVNVLLVATRTENVETRVEVLELADLNPKLADVESYAVERAFSVFADSLPMGANTIGILDIGHTMTTLSVMQNGKIIYTREQVFGGKQLTLEIQSRYGLSLEEASRAKKDRSLPDDYEIEVLDPFLDAVVQQAARSLQFFFSSSQFNEIDHILLAGGNANIPGLAKLLQQKLGYRVTIANPFLQMGFSPQVDVQKIENDASSLMVACGLALRSFD | not soluble |
| SNASNAVKRKGVEVIIALDISNSMLAQDVQPSRLEKAKRLISRLVDELDNDKVGMIVFAGDAFTQLPITSDYISAKMFLESISPSLISKQGTAIGEAINLATRSFTPQEGVGRAIIVITDGENHEGGAVEAAKAAAEKGIQVSVLGVGMPEGAPIPVEGTNDYRRDREGNVIVTRLNEGMCQEIAKDGKGIYVRVDNSNSAQKAISQEISKMAKSDVE | soluble |
| AIGRYTPADSTQELRDAARRLLPSSSLDKDLERLLRTWHKGYSTKTKRGERPCINSDTGPYTSDSVYIRRLSALPSAVPIQFNPAVKQCIKLYTEERRRLVRYMLSLADLYFPQIEETLDRHNLPIELKYLTIV | not soluble |
| MLSRHINYFLAVAEHGSFTRAASALHVSQPALSQQIRQLEESLGVPLFDRSGRTIRLTDAGEVWRQYASRALQELGAGKRAIHDVADLTRGSLRIAVTPTFTSYFIGPLMADFYARYPSITLQLQEMSQEKIEDMLCRDELDVGIAFAPVHSPELEAIPLLTESLALVVAQHHPLAVHEQVALSRLHDEKLVLLSAEFATREQIDHYCEKAGLHPQVVIEANSISAVLELIRRTSLSTLLPAAIATQHDGLKAISLAPPLLERTAVLLRRKNSWQTAAAKAFLHMALDKCAVVGGNESR | not soluble |
| MNEKEKIIEYWRRRARECLDDAKLLLKNERLHSAVNRIYYALFYQVSALLLAKGLSFSKHSGVLAAFNREFVKTGKVNKELGKFYNRMFEHRKTGDYGELVEFEEENVKDWIRKAEGFLDAIEKLIEDLKRA | not soluble |
| MDNKIVYVVSDSVGETADLVVRAAMGQFPFAPDIRRVPYVEDTGTLKEVISIAKSNQALICFTLVKPDMRQYLVTEAAKEGVEAYDIIGPLIDQIEEITGQVPRYEPGVVRRLDEEYFKKIEAIEFAVKYDDGRDARGILKADIVLIGISRTSKTPLSQYLAHNKRLKVANVPLVPEVDPPEELYQVAKEKCFGLKITPEKLNHIRKERLKSLGLSDGATYANINRIKEEIDHFENVVSKINCQVIDVSNKAIEETANIIVNAVQNQKMFMAGDPLEHHHHHH | soluble |
| SAPEENAGTELLLQSFERRFLAARTLRSFPWQSLEAKLRDSSDSELLRDILHKTVKHPVCVKHPPSVKYARCFLSELIKKHEAVHTEPLDELYEALAETLMAKESTQGHRSYLLPSGGSVTLSESTAIISYGTTGLVTWDAALYLAEWAIENPAVFTNRTVLELGSGAGLTGLAICKMCRPRAYIFSDCHSRVLEQLRGNVLLNGLSLEADITAKLDSPRVTVAQLDWDVATVHQLSAFQPDVVIAADVLYCPEAIMSLVGVLRRLAACREDQRAPEVYVAFTVRNPETCQLFTTELGRAGIRWEVEPRHEQKLFPYEEHLEMAMLNLTL | soluble |
| MTDIIIVHSKHGNSKNHWYEWLRHNLTLEGYDVSLFNLEANDHAQIDEWVNEMKQQLHIRKKDTYFVTHGFGSIAALKFLEETHHHIEGFFSIAGFKEDAQDIDEDVDLKGVTIDYDKIKEQVDKFYGLTSKDDQYVSYKETQRLMNSLNGHTRVVEDGGHFLEEEGFVTFTSLINRMQGYMTRLEHHHHHH | not soluble |
| SLLCGPLRLSESGETWSEVWAAIPMSDPQVLHLQGGSQDGRLPRTIPLPSCKLSVPDPEERLDSGHVWKLQWAKQSWYLSASSAELQQQWLETLSTAAH | soluble |

Source: the DeepSol protein solubility set
